# Measurements: publication PMC8650758 (Cell reports, 2021)
# Numbering of substitutions follows the chain as printed. Names may count otherwise.
# T1: DWnt-5(455-1004) (D. melanogaster, UniProt P28466 455-1004, glycosylated at N484/485, N724 and N952; S868 unmodified (not lipid modified))
# T1 sequence (looked up): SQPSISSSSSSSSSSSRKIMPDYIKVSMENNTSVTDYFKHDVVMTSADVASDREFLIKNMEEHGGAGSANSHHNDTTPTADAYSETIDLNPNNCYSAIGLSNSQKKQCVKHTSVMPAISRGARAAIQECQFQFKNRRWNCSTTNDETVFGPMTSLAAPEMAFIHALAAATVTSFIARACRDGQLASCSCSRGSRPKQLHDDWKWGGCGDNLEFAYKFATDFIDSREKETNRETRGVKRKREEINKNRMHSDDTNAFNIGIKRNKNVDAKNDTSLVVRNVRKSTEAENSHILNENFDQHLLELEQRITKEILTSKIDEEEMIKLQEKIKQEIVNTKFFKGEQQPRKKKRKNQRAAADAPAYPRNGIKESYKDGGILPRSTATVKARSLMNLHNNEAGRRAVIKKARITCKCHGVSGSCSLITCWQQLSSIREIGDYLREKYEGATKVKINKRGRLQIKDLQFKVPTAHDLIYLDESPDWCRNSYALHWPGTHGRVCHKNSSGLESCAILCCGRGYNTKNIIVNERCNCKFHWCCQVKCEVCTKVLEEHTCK
# B1: sDrl242 E40K (domain or fragment, D. melanogaster, UniProt Q27324 21-242, looked up)
# chain: HLNIFLNLHEVLRLIGVSAKLYYVREGAINDYALNFAVPVPANISDVTFTWQSLVDHPLPYSINIATSDTEVLPRPILNISRIGDVPVEPQTWGIALKCSGTRNAEVTVTINVEVILDRATNNNTNLIFKRKKICLREEQDSAHEEYDDDDLDLLQTARKGHGGDIHYVDRNDEHVVANGHQAPEKQRPVVTESPVGRGNSGGSKRDFDPMLRENLVPPASG
# B2: sDrl242 (Drl ECR) (domain or fragment, D. melanogaster, UniProt Q27324 21-242, looked up)
# chain: B1 chain with K20E
# B3: sDrl242 I154E (domain or fragment, D. melanogaster, UniProt Q27324 21-242, looked up)
# chain: B1 chain with K20E, I134E
# B4: sDrl242 E126K (domain or fragment, D. melanogaster, UniProt Q27324 21-242, looked up)
# chain: B1 chain with K20E, E106K
# B5: sDrl-2 (Drl-2 ECR) (domain or fragment, D. melanogaster)
# chain: GYLNIFISHHEVMKLMGLEADLFYVHEGAINTYAMHFTVPVPADVHELEFSWQSLIAYPLPYAISIEYNNDQEALGTPTLSIPHKGLVPQEIESFLVYLPCTGNASLQMPVNVNMVVRAPPRFNDTRLHFKRNKICAKGISPEPNQSPAPAHAPSQGPARPLESRGPFEGKPIPNPLLGLDSTRTG
# B6: sDrl183 (Drl WIF domain) (domain or fragment, D. melanogaster, UniProt Q27324 21-183, looked up)
# chain: HLNIFLNLHEVLRLIGVSAELYYVREGAINDYALNFAVPVPANISDVTFTWQSLVDHPLPYSINIATSDTEVLPRPILNISRIGDVPVEPQTWGIALKCSGTRNAEVTVTINVEVILDRATNNNTNLIFKRKKICLREEQDSAHEEYDDDDLDLLQTARKGHG
# B7: sDnt (Dnt ECR) (domain or fragment, D. melanogaster)
# chain: SEVAAHLNVFLNPVEVMRLLGVSAEVYYVREGHINNYALNFIVPVPANVKDISFTWQSLAGRGLPYSINVVSSDQEVLPRPAINVSHSGEIPTTIQTWSIALKCSGLKAAEVDVTVSLEVVLNRSLNNVTHLVFRRKKICLMNDSAEDLSEDVDDPQLLETVMLPPTGRPLESRGPFEGKPIPNPLLGLDSTRTG
# Legend:
# [1] = biological target: T1, DWnt-5(455-1004); assay: SPR
# [2] = biological target: T1, DWnt-5(455-1004); assay: pull-down
binder,measurement,setting,value
B1,fold reduction of affinity against wild-type sDrl242,[1],~10 fold
B2,Kd,[1],0.72 µM
B3,binding result,[1],binds
B4,binding result,[1],binds
B5,Kd,[1],0.23 µM
B6,binding result,[2],binds
B7,fold weaker binding than the Drl and Drl-2 ECRs,[1],~10 fold
